Test [1] addresses Sushi domains (SD1/2) protein of the GABAB1a (GB1a) subunit, recombinant. Nature of the test: FP competition.
For test [2] the target is unchanged. Nature of the test: FP inhibition, six-point, crude peptide of the solution array.
The target is the same in test [3]. Nature of the test: FP competition. This is another data set of the same source.
Test [4] shares this target. The test can be described thus: FP competition with AJAP-1probe.
Test [5] has the same target. Nature of the test: FP competition; end of the range assigned from the Ki values of Table 2.
The target is the same in test [6]. Nature of the test: FP competition. The source holds these as a separate data set.
Test [7] deals with Sushi domains (SD1/2) protein of GABAB1a (GB1a). Nature of the test: FP competition vs TAMRA AJAP-1probe.
Test [8] concerns the target Sushi domains (SD1/2) protein of the GABAB1a (GB1a) subunit, recombinant. Nature of the test: FP competition, N-methylation scan.
Test [9] shares this target. The test can be described thus: FP inhibition.

Several values for one entry are separate records, joined by “and”; a condition that tells them apart may be missing. Equal values may be shown once. Non-standard residues stand in square brackets, D forms with d. 2Nal = N[C@@H](Cc1ccc2ccccc2c1)C(=O)O; Sar = CNCC(=O)O

Sequence of Sushi domains (SD1/2) protein of the GABAB1a (GB1a) subunit, recombinant (Q9Z0U4 29-158): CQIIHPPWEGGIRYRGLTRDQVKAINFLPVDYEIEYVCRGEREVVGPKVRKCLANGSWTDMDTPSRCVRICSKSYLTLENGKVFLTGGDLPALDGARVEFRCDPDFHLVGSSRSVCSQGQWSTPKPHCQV
Sequence of Sushi domains (SD1/2) protein of GABAB1a (GB1a) (Q9Z0U4 29-158): as above

For the molecule Ac-EDDSDVWWYGADTD-NH2 [… (APPWT mutant G211Y)], the values for the inhibition constant Ki in test [1] and in test [2] were 108 nM and 167 nM, respectively.

Ac-EDDSWVWWGGADTD-NH2 [… (APPWT mutant D207W)]: the results for the Ki in test [1] and in test [2] were 100 nM and 78 nM, respectively.

Consider Ac-PWAIVWGPTVSRED-NH2 [PIANPWT (Ac-…-NH2)], for which the inhibition constant (Ki) – broadly, the equilibrium dissociation constant of an inhibitor or competing ligand from its target – in test [1] was 762 nM; in test [3] it was 476 nM.

Regarding Ac-DDSDVWWGGADTDYADG-NH2, in test [4], the inhibition constant Ki came out at 687 nM.

Take Ac-EEDDSDVWWGGADTDYAD-NH2 [Peptide 36 (Ac-…-NH2)]: the inhibitory constant (Ki) in test [1] is 244 nM and 233 nM; in test [4], 244 nM.

As to Ac-DDSDVWWGG-NH2, the inhibitory constant (Ki) in test [4] came to 2630 nM.

Ac-RRRRRRRREDDDWIDWYDSDDD-NH2 [R8-16 (Ac-…-NH2)]: in test [1], the inhibition constant Ki was 107 nM. For the same molecule, in test [5], the fold loss of affinity against the untagged peptide lay in the range of 12 to 33 fold.

On to Ac-TTETEFIAWGPTGDE-NH2, for which the inhibition constant (Ki) in test [4] is 73 nM.

Turning to Ac-EDDSDVWWGGADTD-NH2 [APPWT (Ac-…-NH2)], the Ki stood at 635 nM in test [2] and 557 nM in test [6].

On to Ac-DSADAEEDDSDVWWG-NH2 [peptide 11 (…)], for which, in [4], the Ki came out at 5030 nM.

For Ac-WAIVWGPTVSREDGG-NH2, the Ki in test [4] was found to be 1350 nM.

Ac-AIVWGPTVSREDGGD-NH2: the inhibition constant Ki in test [4] was 637 nM.

B1: …(N-Me-G)ADTD (peptide)
peptide: Ac-EDDSDVWWG[Sar]ADTD-NH2
SMILES: CC(=O)N[C@@H](CCC(=O)O)C(=O)N[C@@H](CC(=O)O)C(=O)N[C@@H](CC(=O)O)C(=O)N[C@@H](CO)C(=O)N[C@@H](CC(=O)O)C(=O)N[C@H](C(=O)N[C@@H](Cc1c[nH]c2ccccc12)C(=O)N[C@@H](Cc1c[nH]c2ccccc12)C(=O)NCC(=O)N(C)CC(=O)N[C@@H](C)C(=O)N[C@@H](CC(=O)O)C(=O)N[C@H](C(=O)N[C@@H](CC(=O)O)C(N)=O)[C@@H](C)O)C(C)C
For B1, the inhibition constant Ki in [7] and in [1] was 161 nM each time. The fold increased affinity against APPWT in test [8] came out at 3 fold.

For Ac-PWAIVWGPTVSREDG-NH2 [peptide 14 (…)], in [4], the inhibition constant (Ki) was 465 nM.

Regarding Ac-TETEFIAWGPTGDED-NH2 [peptide 15 (Ac-…-NH2)], the inhibition constant Ki came to 26 nM in test [1] and 23 nM in test [4].

B2: R4-20 (Ac-RRRREDDD(2Nala)…-NH2) (peptide)
peptide: Ac-RRRREDDD[2Nal]IDWYDSDDD-NH2
SMILES: CC[C@H](C)[C@H](NC(=O)[C@H](Cc1ccc2ccccc2c1)NC(=O)[C@H](CC(=O)O)NC(=O)[C@H](CC(=O)O)NC(=O)[C@H](CC(=O)O)NC(=O)[C@H](CCC(=O)O)NC(=O)[C@H](CCCNC(=N)N)NC(=O)[C@H](CCCNC(=N)N)NC(=O)[C@H](CCCNC(=N)N)NC(=O)[C@H](CCCNC(=N)N)NC(C)=O)C(=O)N[C@@H](CC(=O)O)C(=O)N[C@@H](Cc1c[nH]c2ccccc12)C(=O)N[C@@H](Cc1ccc(O)cc1)C(=O)N[C@@H](CC(=O)O)C(=O)N[C@@H](CO)C(=O)N[C@@H](CC(=O)O)C(=O)N[C@@H](CC(=O)O)C(=O)N[C@@H](CC(=O)O)C(N)=O
With B2, the Ki in [1] is 12 nM. Also, the fold higher affinity than 4R-16 in test [9] is 2 fold.

For the origin of these results see patent publication US20260193293A1, “PEPTIDES CAPABLE OF INHIBITING PROTEIN-PROTEIN INTERACTIONS AT GABAB1A SUBUNIT AND USES THEREOF” (UNIVERSITY OF COPENHAGEN, priority 2022, published 2026).
